Tests used:
[1] = biological target: T1, HLA-B*35:01_… (HLA-PEPTIDE target G5), recombinant soluble complex (human, UniProt P01889 25-297 at identity 0.94); P61769 21-119, enzymatically biotinylated (BirA) for screening and functional assays); assay: BLI Octet, pHLA on streptavidin sensor, 1:1 fit
[2] = biological target: T1, HLA-B*35:01_… (HLA-PEPTIDE target G5), …; assay: BLI (Octet), biotinylated pHLA on streptavidin sensors; printed under the Fab sensorgrams, the sheet does not say which format or fit gave the bivalent value [cont'd]

- Kd [1]: 85.9 nM
- koff [1]: 0.0158 s⁻¹
- Apparent KD (bivalent) [2]: 0.378 nM
B1: Fab G5-P1C12 (Fab, V domains shown)
VH: QVQLVQSGAEVKKPGSSVKVSCKASGGTFSNFGVSWLRQAPGQGLEWMGGIIPILGTANYAQKFQGRVTITADESTSTAYMELSSLRSEDTAVYYCATPTNSGYYGPYYYYGMDVWGQGTTVTVSS
VL: DIQMTQSPSSLSASVGDRVTITCRASQSISSWLAWYQQKPGKAPKLLIYAASTLQSGVPSRFSGSGSGTDFTLTISSLQPEDFATYYCQQSYSIPLTFGGGTKVEIK
notes: Fab from HEK293

Source: US20220213196A1 (GRITSTONE BIO, published 2022)
